pKd: −log10 of the molar value.
Biological target: GST-VPS29C (human) (UniProt F8VXU5)
Assay: ITC; 300 μM peptide titrated into 10 μM GST-tagged VPS29C, 25 °C, 50 mM Tris-HCl pH 7.5, 200 mM NaCl, 2 mM β-mercaptoethanol; single-site model

## VPS35L 28 to 37 (from UniProt Q7Z3J2 28-37) (peptide)
  pKd: < 4.00

Reference: article PMC12260524, “Identification of a VPS29 isoform with restricted association to Retriever and Retromer accessory proteins through autoinhibition” (Proceedings of the National Academy of Sciences of the …, 2025)
